PMC5641629

molecular target: penicillin binding protein 2a (PBP2a) lacking the N-terminal 40 amino acid membrane-spanning domain (Staphylococcus aureus (MRSA)); experiment: SPR

Substance	Kd [µM]	koff [s⁻¹]	kon [M⁻¹ s⁻¹]
BLIP-II F209A (from UniProt O87916 1-311) (natural protein)	6	0.00078	137
BLIP-II W152A (from UniProt O87916 1-311) (natural protein)	–	0.0012	185
BLIP-II Y113A (from UniProt O87916 1-311) (natural protein)	4	–	217
BLIP-II I229A (from UniProt O87916 1-311) (natural protein)	3.4	0.00115	339
BLIP-II L91A (from UniProt O87916 1-311) (natural protein)	4	0.00066	168
BLIP-II D52A (from UniProt O87916 1-311) (natural protein)	1.8	0.00061	354
BLIP-II T57A (from UniProt O87916 1-311) (natural protein)	0.6	0.00095	1750
BLIP-II Y73A (from UniProt O87916 1-311) (natural protein)	1.2	0.00119	961
BLIP-II N50A (from UniProt O87916 1-311) (natural protein)	0.45	0.000719	1540
BLIP-II S169A (from UniProt O87916 1-311) (natural protein)	1.4	0.00074	504
BLIP-II N112A (from UniProt O87916 1-311) (natural protein)	1.2	0.0014	1190
BLIP-II E268A (from UniProt O87916 1-311) (natural protein)	4.7	–	424
BLIP-II N51A (from UniProt O87916 1-311) (natural protein)	0.7	0.00086	1270
BLIP-II W269A (from UniProt O87916 1-311) (natural protein)	3.1	0.00116	375
BLIP-II Y248A (from UniProt O87916 1-311) (natural protein)	–	0.00086	114
